Data taken from the supplement of paper PMC12042874.
± gives the uncertainty stated by the source.

Assay: amyloid nucleation score (Sup35N fusion, yeast selection) (log enrichment); library NNK1; higher = more nucleation; inactive = no reads after selection
How it was run: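 Sup35N was fused to peptides of 20 random codons and expressed in psi-negative yeast, which were induced with 100 μM copper sulfate for 24 hours and then grown on medium lacking adenine and uracil for 7 days at 30°C. Plasmid inserts from input and output were sequenced on Illumina. The nucleation score is the DiMSum log enrichment of output over input reads, centred on the mode score of non-aggregating sequences. Sequences with under 100 input reads were left out, and random libraries had three technical output replicates.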

Substance | amyloid nucleation score
CDEGWEESNSTD | -0.522 ± 1.6
NLPLLFL | -0.069 ± 0.27
WETVQLTGRVLFWAISYCKI | -0.178 ± 0.52
DTKNAWLILSTYLDNLFHIS | 0.976 ± 0.33
TLNIVHLYME | 4.5 ± 0.065
FNITYCFRSFSTSVDNGF | 0.436 ± 0.55
LVMMTDIANWRLPCYFSNLW | 0.201 ± 0.54
AINLRLV | 0.23 ± 0.36
FFGCFGLYYAMAHLLYPSLE | 1.48 ± 0.8
GFRRGPVSSSV | 0.206 ± 0.67
EVCCNVKTL | 0.431 ± 0.28
PLFCNNWSVLEFERRLGDMH | 1.03 ± 0.24
GKFDSGYVKGTVHNEAEFQP | -0.223 ± 0.31
APLYLHMWSCYSLMLSPSMG | -1.5 ± 2.4
LFAIKYCDVSD | 0.286 ± 0.43
LPVHGMFWSVR | -0.157 ± 0.78
SNEVVKFKWSCIPETCSRVW | 0.429 ± 0.61
AVSSYYVERRYLNLQGANRY | 3.22 ± 0.15
DSLVGVARDSMTSKQHNKNE | -0.112 ± 0.69
TSCEGEDFGRKLSREMVLWC | 0.234 ± 0.68
VCISWLRDTGADC | 2.12 ± 0.23
LLYLCYIRCI | 0.952 ± 0.65
LGPNW | -0.356 ± 0.53
ILYVNNFIFLH | 7.59 ± 0.056

Substance | amyloid nucleation score
CSSRVRMTRQLVKLVNICMR | -0.122 ± 0.97
VMYLSGCHLRLKCYLGSFNR | 5.51 ± 0.076
LLDRRVGKLGLDCMLLDLCQ | 0.752 ± 0.42
RDCFIRGKWCTCWHWCEGGE | 1.34 ± 0.27
PAPLQIRNMSSNAKTR | inactive
SWMNS | 0.759 ± 0.55
KRSTVRHYYRARCFITVAMV | -0.365 ± 0.45
TRVKQMEVVSWTRHHWPRCF | -0.623 ± 0.47
RNSMQILASLNNMDQRPLWR | 1.51 ± 0.51
SNTICQVGASREEPSCGTQW | 1.14 ± 0.97
VFNCWCLTEFFVMYGIVCQK | 4.52 ± 0.1
FMSYLNYRQCPPVLDEEVVP | 0.241 ± 1
NPLMTTLATSDMWRNQFISG | 1.38 ± 0.41
SAVGAIDANIYKSDGYSWG | -0.879 ± 0.58
VSYQGTSAFDGSRKVVGPTL | 0.353 ± 0.54
LGHGHIDGQYKGYRVKWTYD | -0.644 ± 0.35
VHESTSHRMWRSLI | 1.15 ± 0.41
NLCYHWVRNIQNGQRFLCQL | inactive
NPCHKMFSRNPHLYMAAVKS | 0.335 ± 0.96
NLLWNTVIIFDFVRNLWTWS | 0.813 ± 0.72
EKLKMVVGWVVPLSAHMQEY | 0.609 ± 0.84
YFDWLGCLLTWQRKYVQT | -0.048 ± 0.93
IRQQFKCYGEFCATM | -0.587 ± 1.2
ELKRGVHLRPE | 4.36 ± 0.14

Substance | amyloid nucleation score
SWNRGVLESHKHAYFALPQF | 0.417 ± 0.24
FRSGYRLACSAMSIAFCIYE | 0.341 ± 0.48
NAYLKVIYQRSFGAPNRH | -0.1 ± 0.69
TWRQNSRGNRASNCYVRSLS | inactive
PLVKGIHSNPRTYTTMYYSY | -1.93 ± 2.7
NSHHKKGHVKRAVRLLHYPV | 0.799 ± 0.84
FNFNFRRFYHVRGFDSRSHL | 0.473 ± 0.58
EGSVGHRMVSWVFISYTLVL | 0.006 ± 1.1
VMSVSWVCIGCLSEDISWVF | 5.884 ± 0.044
TNVYESSVSFVMMGS | 0.364 ± 0.26
GANKTWCYKSSQCVISDGLG | -0.103 ± 0.66
MSSLIVYLRDAPRVLNLYVR | 2.5 ± 0.17
ELKLLSNAFGMQGIWIRRVV | -0.113 ± 0.32
QEPCGW | -0.172 ± 0.29
VYCFCQNRSSFYGKMHLGMH | 1.25 ± 0.62
HGLVNG | 0.437 ± 0.52
ANFFICFLHLVCTKIQSSLL | 1.77 ± 0.52
VACNKLRYMCRCQYNMTVWF | -0.262 ± 0.62
DWRFSGALRLSLMHTYQ | 4.09 ± 0.072
SVANGALSRLAYIKRYRVWW | 0.522 ± 0.45
DFHDLSNLVTGGLLITHIL | 1.01 ± 0.58
VPALQQIPYCMI | 0.524 ± 0.57
LSTMRLGHYCLAYCRLGCLY | 0.827 ± 0.41
GRTAQAVRGGRAVVYAGLKL | -0.157 ± 0.36

Substance | amyloid nucleation score
TFLGLAGSHCLFSFVANSAR | 1.24 ± 0.28
AGLRVYKIKSFRLEDSVNAG | 1.49 ± 0.71
LIRNKIRR | -1.12 ± 0.93
KSVAIAPYDGCVMFSKQTWG | -0.025 ± 0.63
GWLIR | inactive
WCRRWFLLYWVCAETKFGSG | -0.367 ± 0.52
SSWSGMFTCSYTMMLWLRRL | -0.692 ± 0.75
TLVFYRVQGFGIPKSQLTGE | -0.675 ± 1.1
VARHISAVSAWGACYRWCFR | 0.706 ± 0.51
LGSMSPVGLTKYLGDGEEVV | -0.036 ± 0.55
LYHRGVFELCS | 0.596 ± 0.34
CVIQVVLYLV | 3.83 ± 0.059
FLNRYICKFDKVSQHGVRLW | 0.261 ± 0.84
NLTWAGTLY | -0.875 ± 1.5
WFIPNKGTYREAYFLSCLGS | -0.954 ± 1.3
DLSWSGTFSAGHGNMNFTKS | 2.53 ± 0.15
SWIHVHHL | 0.691 ± 0.7
MFRRFSWGR | -0.198 ± 0.44
TMCCTLDARRLLLSMADFYC | 5.42 ± 0.072
YLLSCVGIASLGFKVFL | -0.718 ± 0.7
LFLECNDTLHRATTGVNLFK | 0.206 ± 1.6
GIAVHGMLDRMVSRRGLRAW | 0.387 ± 0.97
KLSFK | -0.227 ± 1.9
LKTGGSPNLVANYMYDRCAG | 0.581 ± 0.38

Substance | amyloid nucleation score
SLIRLCVAVTSTSNPGWPLL | 3.09 ± 0.12
LFRFCTIILLAYGLSLCNDI | inactive
TKNSLGHNMLIDWGSCVGGC | 1.23 ± 0.31
IAYNDSYMVKYCVREVLMDE | 4.29 ± 0.13
DSSRSVFLWTGG | -0.994 ± 1.9
VLVSSCSTGDLVSSDPHSSV | inactive
HHVIRVDIMMFVVKSSELYN | inactive
RSSCKTTLEIIGVLRMRVYA | 0.769 ± 0.45
TLRVVMKWLAHTWFRHTLMR | -0.083 ± 0.42
LLWEPRKFFESNWLSIQSAK | -0.668 ± 1.7
NFVQLAWLVRWAWEV | -0.088 ± 0.56
LSNRSKNDGKSRLIPMDDVH | inactive
NRKAPFNQA | -1.09 ± 1.4
NMHNQVAFISCSFILFDVIN | 6.95 ± 0.07
AYNFRSRRWMLFGYNWVSAP | 1.59 ± 0.51
KFIIVLILDCITIHHSVVVS | -0.819 ± 0.67
VESFYVSIFGGGLRLKCSKS | 0.514 ± 0.46
KRCFVLWLHRLWVGVNVFAD | 0.237 ± 0.25
IWKSSRGPLIGLVVLDIARR | 1.01 ± 0.79
PWDYVSLSI | -0.424 ± 0.73
TECSSSGIALMWVFWRSICT | inactive
SKMCY | -0.692 ± 0.43
HLTKRGLSQTKRSAALQRVG | 0.514 ± 1.2
FTQKIFQTFFDHAYNWFSRV | 0.918 ± 0.46

Substance | amyloid nucleation score
VVTRDQLYQ | -0.817 ± 1.7
YARVGKRNGSRNPYFINWGR | -0.733 ± 1.3
HTKTLAFHIILTIILRCMFL | 0.713 ± 0.34
RPCNEGFWLHNHGRSNSSSS | -0.462 ± 0.52
LRTARNMGYICSIVSFNNLN | 5.13 ± 0.055
IGFHSMDFEQYFCYFSVKTK | 0.616 ± 0.75
AARRLNELSSELKWMCSATD | -0.077 ± 0.4
RNGCKFTKLFETVRFKEEGF | -1.03 ± 0.48
HMNVPIDRSLGSFFFAKVMK | 0.867 ± 0.2
CTLVDHYWGCEGRSCARCSS | 0.233 ± 0.55
VHASYIVRIRHLSGILEGAV | 0.369 ± 0.46
NRTIFVVRHTDFGYLA | 0.661 ± 0.75
KYENGCTDTWGMTVASPLIK | -0.515 ± 1
FHWVGVSYQLKMRRVKPKGV | -0.441 ± 1.1
RRTLSSGVSLYCYPKLGVAR | -0.24 ± 0.53
TFLYVWSTSDSYKK | 0.148 ± 0.61
IGLFWSFVKKIEVIICVGML | 0.665 ± 0.9
FGESPH | 0.494 ± 0.74
SGDSSYIMLLVVAPMYCQLP | -0.148 ± 0.83
VGLLSISLMYQRTASTGYFS | 0.615 ± 0.28
PGVECACRVSNATNVDGLDL | -0.168 ± 0.5
LWGRFYIYHSLFHRSHHVKL | -0.284 ± 1
NSFSDAYKIVYLHIYRSGGI | -0.448 ± 0.6
LKNGSDSILDARVYLGG | -0.221 ± 0.51

Substance | amyloid nucleation score
SDSGPTALNVYFPGTCQGNS | inactive
VLYSELLGFRKSIIIMVWTR | -0.015 ± 0.28
HIVVFKYVCYSHEAVYWRPE | 0.305 ± 1.2
ENKHVGICSGVQFVAFETCY | inactive
YILLLFSVVWIKKFGDCSCA | -0.048 ± 0.35
TLVFRYKSDGCQSLRVRLTF | 0.084 ± 0.32
DNYVMWVLEGLSYVLGNNRI | -0.087 ± 1
DMDGDSLGVFWALATVYQAH | -0.551 ± 0.36
VKTPSVRIKWDVISLSLPCA | 0.156 ± 0.53
CYNTRVPFGMPLKRTPYRSR | -0.509 ± 1.1
KGKTNGVV | -0.44 ± 0.48
KGNRGQ | inactive
PCAETLVRHIHAYLKWI | 0.065 ± 1.2
LPSVESLHRTTSCVYF | -0.561 ± 1.2
VSGLRRSRSWWAFDVQSLLR | 0.544 ± 0.55
WCHGHYHSSNEMSTI | 1.37 ± 0.69
CQELYLKFVVENFSTFLRNH | -2.68 ± 2.7
RGSKRTVKLNSGVRVKSYDW | 0.373 ± 1.4
VAVQRPIFIVMWPQNLCISA | 3.69 ± 0.13
EGDYNGGCCQGLLNCQ | -0.562 ± 0.56
IFVVMQTIFMWLDSWADQSL | 0.391 ± 0.35
WCNRHHDWVVLLAIVAGGEV | 0.873 ± 0.64
STDLSYVSCAYVSTFLPNFR | 2.2 ± 0.21
PNAVNIIYDCAQLLFMRTMR | -0.188 ± 0.65
